According to the supplement of paper PMC12042874:
± gives the uncertainty stated by the source.

Experiment: amyloid nucleation score (Sup35N fusion, yeast selection) (log enrichment); library NNK1; higher = more nucleation; inactive = no reads after selection
Procedure, shortened: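 Psi-negative yeast expressed Sup35N fused to peptides of 20 random codons. They were induced 24 hours with 100 μM copper sulfate, grown 7 days at 30°C without adenine and uracil, and their plasmid inserts from input and output were Illumina-sequenced. The nucleation score is the DiMSum log enrichment of output over input reads, centred on the mode score of non-aggregating sequences. Sequences with under 100 input reads were excluded.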

In order of falling amyloid nucleation score:
1. TNFFGSPCAMCNFSLDICSK  8.038 ± 0.057
2. MDWNQGVAGATMIYLCFNNN  7.881 ± 0.064
3. QLCGFITCIISMSLPGYQCE  7.816 ± 0.052
4. KILCWNIFLPYKGVRGRFGM  6.895 ± 0.053
5. ICCISKILLFCISM  6.53 ± 0.091
6. RGNVCCTMIC  6.09 ± 0.074
7. SYICLHYFCIQ  5.745 ± 0.055
8. ILLVSNEEISLCYCVYLGWM  5.729 ± 0.056
9. RNTVQYVFYPQDLWWSAGVQ  5.429 ± 0.048
10. AVCQRNLFGIVRICRSKTR  4.64 ± 0.055
11. LCCAKLRNAIKVVNQCTCGY  4.4 ± 0.049
12. VYGSIKSVEANTVWML  3.32 ± 0.16
13. VCTCFSSWAWEVNF  3.28 ± 0.083
14. LYVTLV  2.23 ± 0.17
15. LVGPAVVSYCCIRLISVVD  1.94 ± 0.58
16. GWVMLTCIRNAGVNLRPGSR  1.58 ± 0.53
17. RLGLVVSVGRRRLLTAQLGK  1.38 ± 0.72
18. INDRVDGSVIEMSLCRYG  1.19 ± 0.8
19. GTLDDTGVTDDNFI  1.19 ± 0.4
20. FKDLNIWDWKNGAHITNCLG  1.05 ± 0.63
21. IIGQYMQFAYFSVDRTL  0.871 ± 0.38
22. RMVNKTECTRRRIITTSNWI  0.869 ± 0.81
23. HVHWPLLNNAYAS  0.867 ± 0.93
24. HMLASNSRWNTAKGINWGFH  0.758 ± 0.7
25. HAVSDFIPG  0.69 ± 0.41
26. CRDAILIEVGNYRHLVLGPV  0.677 ± 0.52
27. GQPVFSLDCIYYLLYCFDAT  0.595 ± 0.6
28. CLCARML  0.542 ± 0.67
29. CVALGLLGRCVLLVAGGGWA  0.503 ± 0.54
30. VKDASFRFAQQEGMRLRMQS  0.503 ± 0.38
31. LCVCGPRSVVNAREDVEGLS  0.478 ± 0.55
32. FEKTIHFV  0.43 ± 0.36
33. HVQLELTSCKEGGGCRS  0.379 ± 0.78
34. IVYLSCFVRCP  0.379 ± 0.56
35. VCYGVLPFEEWKMSFSACVT  0.369 ± 0.37
36. TLSTVTG  0.357 ± 0.37
37. GSSDPHVLVN  0.341 ± 0.26
38. TSMWTYY  0.298 ± 0.33
39. VLPFSLFAYAACFVLTLTYV  0.274 ± 1.1
40. FLCMPL  0.266 ± 0.41
41. GRDDSGWPSVVVWSPGADQA  0.243 ± 0.56
42. YNNSLWPIRLVRSKQCLSWT  0.215 ± 0.54
43. IYIGLLYVLCIGLASMCLTS  0.199 ± 0.84
44. NMSLSWRTNRYAWPMVCLIR  0.182 ± 0.23
45. CFYNKRLCGRPFMLVWQNYS  0.161 ± 0.56
46. NVGRHV  0.151 ± 0.9
47. SQLARLLFIAGIVPTRARVI  0.144 ± 0.64
48. SAAVGLLVHQYRSSELQLFN  0.136 ± 1
49. TFFLVLVSPD  0.059 ± 1.4
50. LVRWVCIGFRYILRGELGVE  0.052 ± 0.28
51. DLIMFD  -0.029 ± 0.73
52. VKDATSHASGDFGRPGHWDK  -0.042 ± 0.55
53. MISMFSLFLIRMIM  -0.052 ± 0.54
54. LHRRSDNGESFWTEGSITFV  -0.086 ± 0.25
55. SVGGVAGEF  -0.087 ± 0.96
56. MSVLALVPGYLSA  -0.088 ± 0.46
57. NYTVRENGSK  -0.127 ± 0.27
58. ASAGPRWIWFGLGLQRCDAY  -0.141 ± 0.87
59. QTRSPQFKPAAYRVFLVDLC  -0.159 ± 0.77
60. EVMPPLKLPRHFEEIRAEAG  -0.184 ± 0.51
61. VFALMRISSNSMSKCQFVCD  -0.187 ± 0.39
62. LRFRMNSLLVKWFFP  -0.199 ± 0.34
63. MRLLIGEKIMWSLRCCSDKG  -0.263 ± 0.29
64. WFGTHCVLSYVSTFWSLQSV  -0.275 ± 0.24
65. GAFEGVFHRVMSDGRGAFAR  -0.289 ± 0.42
66. PRYNCYQQHEVALDFSSLRC  -0.297 ± 0.54
67. YYTYDGVGSLICTCRFTRVV  -0.356 ± 0.49
68. VKSADIIVL  -0.357 ± 0.34
69. QVWSPHSVSKFGPGPPVTEA  -0.388 ± 1.4
70. APFHEGNIFRAVTFKTYPSR  -0.422 ± 0.72
71. ICVGGNGADCFKMTTGGQLC  -0.481 ± 0.5
72. VFLVYLY  -0.608 ± 0.28
73. NNYYA  -0.616 ± 0.52
74. LTSSCQSSLKRKWGNIWHIR  -0.641 ± 1.1
75. GSGSVHSWHSLINSSDIFVT  -0.682 ± 0.81
76. SGGWTSLDGDMSCSSVTYLV  -0.703 ± 0.84
77. ILCCLMSFWDVRKFFFNQKA  -0.722 ± 0.41
78. KWCDMRGYGQRFRCGRMVHV  -0.727 ± 0.73
79. ILGQYGALYSIGTHWFLFVI  -0.755 ± 0.37
80. TSVSKLQHWIYFTFY  -0.834 ± 1.4
81. MLRMQKIGLFSLGMSC  -0.838 ± 0.47
82. FRVWSAFPYVGKSSPFGHSS  -0.89 ± 0.53
83. PKMPGMVYDTPN  -1.49 ± 2.4
84. LMCWFAGEDPVFVYTVFIVT  -1.49 ± 1.4

With FFYNLFDILFFSFFRILSII the amyloid nucleation score was “inactive”.
For HWCYVLNS, the amyloid nucleation score was “inactive”.
